Reference: paper PMC10954691, “A structure-based designed small molecule depletes hRpn13^Pru and a select group of KEN box proteins” (Nature Communications, 2024)

Molecular target: T1, hRpn13 Pru (1-150) (human, UniProt Q16186 1-150)
T1 construct: hRpn13 (proteasome subunit, gene ADRM1), Pru domain, residues 1-150; printed MW 17017.3 g/mol; also called hRpn13 Pru domain
Test: 19F NMR of the competing small molecule XL44; 25 or 50 uM hRpn2 (940-953) added to preincubated 50 uM XL44 and equimolar hRpn13 Pru; NMR buffer (20 mM sodium phosphate, 50 mM NaCl, 2 mM DTT, 10% DMSO-d6, pH 6.5), 10 °C
Details: both partners purified

T1 sequence (Q16186 1-150): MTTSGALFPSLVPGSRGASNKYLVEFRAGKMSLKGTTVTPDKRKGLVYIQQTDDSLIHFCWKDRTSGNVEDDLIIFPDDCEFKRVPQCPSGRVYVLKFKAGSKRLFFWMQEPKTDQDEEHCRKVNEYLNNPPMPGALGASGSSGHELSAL

binding result: binds
B1: hRpn2 (940-953) (peptide, UniProt Q99460 940-953, looked up)
chain: QEPEPPEPFEYIDD
notes: hRpn2 (proteasome regulatory particle subunit), extreme C-terminus, residues 940-953; also called hRpn2 peptide; not shown: GST, N-terminal, cleaved
